Source: patent US20210040204A1 (INSERM INSTITUT NATIONAL DE LA SANT ET DE LA RECHERCHE M …, published 2021)
Changes are numbered by the printed parent chain.

Legend:
human Claudin-1 [1] = biological target: T1, human Claudin-1 (human, UniProt O95832 1-211); test: flow cytometry on Huh7.5.1 and HepG2 cells with surface CLDN1 (FIG. 2A)
T1 construct: whole, on cells; also called CLDN1; human CLDN1
T1 sequence (looked up): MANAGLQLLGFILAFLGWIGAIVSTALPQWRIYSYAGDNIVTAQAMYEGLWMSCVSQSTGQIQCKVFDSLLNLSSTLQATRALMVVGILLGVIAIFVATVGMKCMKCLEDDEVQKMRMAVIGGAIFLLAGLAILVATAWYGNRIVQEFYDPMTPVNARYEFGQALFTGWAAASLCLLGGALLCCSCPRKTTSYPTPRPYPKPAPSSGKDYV
Procedure: (§1) FIG. 2. […] (A) Flow cytometry analysis of the binding of humanized OM-7D3-B3 anti-CLDN1 mAbs (20 μg/mL) to cell lines. […] Binding is expressed as delta median fluorescence intensity (ΔMFI). […] After 48 h, cells were stained with isotype control, rat OM-7D3-B3 or humanized H3L3 antibody (20 μg/mL). The ΔMFI from one experiment performed in duplicate are shown. […] Huh 7.5.1 cells were incubated with different mAbs (25 μg/mL) at 37° C. for 1 h prior to infection with HCVcc. Infectivity was assessed after 72 h by measuring luciferase activity and is expressed as log relative luciferase units (RLU). (D) Humanized anti-CLDN1 mAbs inhibit entry of HCVpp bearing envelope glycoproteins of strains H77 (genotype 1a) and HCV-J (genotype 1b). PHH were pre-treated with the humanized antibodies (20 μg/mL) for 1 h at 37° C. prior to infection with HCVpp. Infectivity was measured by luciferase activity after 72 h and is expressed as RLU. Graphs show results from one experiment performed in duplicate (A, B, D) or in triplicate (C).
(§2) Flow cytometry. […] Cells were washed and incubated with phycoerythrin (PE)-conjugated species-specific secondary antibodies at 4° C. for 45 min to allow detection of binding. Cells were subsequently washed and fixed with 2% paraformaldehyde (PFA) prior to analysis by flow cytometry using a BD LSRII flow cytometer. Net delta median fluorescence intensities (ΔMFI) were obtained after subtracting the background fluorescence with PBS. […] After 48 h, binding of antibodies was assessed as described above.

human Claudin-1 [2] = biological target: T1, human Claudin-1; test: not described (data not shown)
human Claudin-1 [3] = biological target: T1, human Claudin-1; test: flow cytometry, 20 µg/mL, 293T cells transfected with CLDN1-expressing pcDNA3.1 (FIG. 2B)
Procedure: as §1
as §2, with “Cells were subsequently washed and fixed with 2% paraformaldehyde (PFA) prior to analysis by flow cytometry using a BD LSRII flow cytometer.” left out

human Claudin-1 [4] = biological target: T1, human Claudin-1; test: flow cytometry, 20 µg/mL, Huh7.5.1 and HepG2 cells (FIG. 2A)
Procedure: as §1
as §2, with “Cells were subsequently washed and fixed with 2% paraformaldehyde (PFA) prior to analysis by flow cytometry using a BD LSRII flow cytometer.” left out

B1: rat anti-CLDN1 mAb OM-7D3-B3 (antibody, V domains shown)
VH: EVQLVESGGGLVQPGRSLKLSCLGSGFSFSSYGMNWIRQAPGKGLEWVASISPSGSYFYYADSVKGRFTISRENAKNTLYLQMTSLRAEDTALYYCARLPGFNPPFDHWGQGVVVTVSS
VL: NTVMTQSPTSMFMSVGDRVTMNCKASQNVGGNVDWYQWKPGQSPKLLMYGASNRYTGVPDRFRGSGSGTDFTLTISNMQTEDLAVYYCLQYKNNPWTFGGGTKVELK
notes: Hybridoma antibody, rat IgG2b with rat kappa light chain; also called rat OM-7D3-B3; parental rat antibody
B1: binds (human Claudin-1 [1]).

B2: recombinant full-length IgG2b (parent isotype) antibody with the VH and VL of rat OM-7D3-B3 (antibody, V domains shown)
VH: B1 VH
VL: B1 VL
notes: IgG2b as the parent; also called recombinant full-length IgG2b antibody
B2: binds (human Claudin-1 [2]).

B3: humanized anti-CLDN1 mAb H2L1 (antibody, V domains shown)
VH: QVQLVESGGGVVQPGRSLRLSCAASGFSFSSYGMNWVRQAPGKGLEWVTSISPSGSYFYYADSVKGRFTISRDNSKNTLYLQMNSLRAEDTAIYYCARLPGFNPPFDHWGQGTLVTVSS
VL: DIQMTQSPATLSVSPGERATLSCKASQNVGGNVDWYQWKPGQAPRLLIYGASNRYTGIPARFRGSGSGTEFTLTISSLQSEDFAVYYCLQYKNNPWTFGQGTKVEIK
notes: Full-length antibody made in CHO cells; variable domains fused to the constant domains of human IgG4 heavy and human kappa light chains
B3: binds (human Claudin-1 [1]).

B4: humanized anti-CLDN1 mAb H2L2 (antibody, V domains shown)
VH: B3 VH
VL: DIQMTQSPSSLSASVGDRVTITCKASQNVGGNVDWYQWKPGKAPKLLIYGASNRYTGVPSRFRGSGSGTDFTLTISSLQPEDVATYYCLQYKNNPWTFGQGTKVEIK
notes: as for B3
B4: binds (human Claudin-1 [1]).

B5: humanized anti-CLDN1 mAb H1L2 (antibody, V domains shown)
VH: B3 VH with Q1E, V11L, Q13K, R16G, T49S, S75A, T78S, I93V
VL: B4 VL
notes: as for B3
B5: binds (human Claudin-1 [1]).

B6: humanized anti-CLDN1 mAb H2L3 (antibody, V domains shown)
VH: B3 VH
VL: B4 VL with S60D, Q100G
notes: as for B3
B6: binds (human Claudin-1 [1]).

B7: humanized anti-CLDN1 mAb H3L3 (antibody, V domains shown)
VH: B3 VH with A23L, A24G, T49A, N84T
VL: B4 VL with S60D, Q100G
notes: Full-length antibody made in CHO cells; variable domains fused to the constant domains of human IgG4 heavy and human kappa light chains; also called humanized anti-CLDN1 antibody clone H3L3; humanized CLDN1 mAb (H3L3)
B7: binds (human Claudin-1 [3]).

B8: humanized anti-CLDN1 mAb H3L1 (antibody, V domains shown)
VH: B3 VH with A23L, A24G, T49A, N84T
VL: B3 VL
notes: as for B3
B8: binds (human Claudin-1 [1]).

B9: humanized anti-CLDN1 mAb H1L1 (antibody, V domains shown)
VH: B3 VH with Q1E, V11L, Q13K, R16G, T49S, S75A, T78S, I93V
VL: B3 VL
notes: as for B3
B9: binds (human Claudin-1 [4]).

B10: humanized anti-CLDN1 mAb H3L2 (antibody, V domains shown)
VH: B3 VH with A23L, A24G, T49A, N84T
VL: B4 VL
notes: as for B3
B10: binds (human Claudin-1 [1]).

B11: humanized anti-CLDN1 mAb H1L3 (antibody, V domains shown)
VH: B3 VH with Q1E, V11L, Q13K, R16G, T49S, S75A, T78S, I93V
VL: B4 VL with S60D, Q100G
notes: as for B3
B11: binds (human Claudin-1 [1]).
